Reference: the PETadex activity labels (doi:10.3390/microorganisms12010138)

B1: unnamed (protein)
chain: MKKLLKVLLIIFLVIVVLVIGLVIFLTIASGKQNAPKEYWNAIASEGTIEKEYNKLGSYEFESKVYDAPKVDSHDNNFVVYMPKEEGTYPLVVMVNGSGTPWDKYKAVFEHFASWGYVVVGCNYEISWDGKHASETLDFALNTKEIADKVDTSKVAVCGHSQGGEGAFNAALEYDNSDMYKAIISLSPTNQELALGLKWGFNLDTDDMYAYRLENVTIPTMIIAGTGKFDSETVTPLYKMEDMFEQLNTDVVMARLSNNVDHGAVLYEANGYVIAWLDYYLKGIETNGTAFFGNEAEIKNNTRYQDFTSQKV
B2: unnamed (protein)
chain: MQNPSAPVVETRQGALTGLTDENVHRWCGIPYAAPPVGDWRWRSPRPPERWDGVRDATAFSASSWQSSEYCQELGGGDPGQFSEDCLYLNVWSPVDRPGSLPVMVWLHGGGFTIGAGGLPPYHGKSLAARGVVVVTINYRLGHLGFFAHPALEGEEERVVHNFALLDQIAALEWVRENITAFGGDPHNVTLFGESAGARSVLSLLASPLAEGLFHKAIVQSGYTLPDTPRQQALQKGEALAAHFGLENATAEQLRAIPPESFWPLTAPLNIAPAPIVGDCVLPEAMLDVFFAARQHPVPVMIGSNSDEASVMAVFGIDLAGQIQKLRRERRFGLGLIKLLYPGVKGDEELGRQVCRDMAFTTMGYVVMQAQQRVGGLCWRYWFDYVAEAEHATYINGAWHGNEVPYVFDTLGQVEPSRQYVNERDLQFAARVADYWVSFARDAGTHDSLSGPTHWPACRKGRDVLLRIGVNKHAGFRLENRFMRARMSLFKRVMKHHVSLD
B3: unnamed (protein)
chain: MEKSVLIKGDNYDISGILSYKETVDKMPAVILCHGTGAQKNEVGDLFVILAEKLLQRGIASIRIDYAGCGDSKADQRELTFLGEVEDTKKAYQYICDLGCVDQKNIGILGFSQGARVVAELLKEMQEFTCVASWSGACQNGRGVFEGWFQEYYQEAEEHGYARIPMGWRDDLLLSKQWFDEIENTTPMDGLKKYTGPVLAVAGAADEIVPCSHTKEIMAEGTNEQSKMLILPGADHIFNVLSGDKTMSEHVLDVTADWFAEVMGGAKISK
B4: unnamed (protein)
chain: MKKLLKVLLIIFLVIVVLVIGLVIFLTIASGKQNAPKEYWNAIASEGTIEKEYNKLGSYEFESKVYDAPKVDSHDNNFVVYMPKEEGTYPLVVMVNGSGTPWDKYKAVFEHFASWGYVVVGCNYEISWDGKHASETLDFALNTKEIADKVDTSKVAVCGHSQGGEGAFNAALEYDNSDMYKAIISLSPTNQELALGLKWGFNLDTDDMYAYRLENVTIPTMIIAGTGKFDSETVTPLYKMEDMFEQLNTDVVMARLSNNVDHGAVLYEANGYVIAWLDYYLKGIETNGTAFFGNEAEIKNNTRYQDFTSQKVK
B5: unnamed (protein)
chain: MNFPRASRLMQAAVLGGLMAVSAAATAQTNPYARGPNPTAASLEASAGPFTVRSFTVSRPSGYGAGTVYYPTNAGGTVGAIAIVPGYTARQSSIKWWGPRLASHGFVVITIDTNSTLDQPSSRSSQQMAALRQVASLNGTSSSPIYGKVDTARMGVMGWSMGGGGSLISAANNPSLKAAAPQAPWDSSTNFSSVTVPTLIFACENDSIAPVNSSALPIYDSMSRNAKQFLEINGGSHSCANSGNSNQALIGKKGVAWMKRFMDNDTRYSTFACENPNSTRVSDFRTANCS

Columns and labels:
[1] = substrate: PET; assay: Proxy for plastic degradation [Released monomer concentration (HPLC/LC-MS) (TPA)]; conditions: pH 7
[2] = substrate: PET; assay: Proxy for plastic degradation [Released monomer concentration (HPLC/LC-MS) (MHET)]; conditions: pH 7

| Protein | Proxy for plastic degradation [1] | Proxy for plastic degradation ([2]; 37 °C) | also measured |
| --- | --- | --- | --- |
| B1 |  |  | Proxy for plastic degradation ([1]; 37 °C, part of the chain shown): 0 µM; Proxy for plastic degradation ([2]; 37 °C, part of the chain shown): 0 µM |
| B2 | 2 µM | 0 µM | Proxy for plastic degradation ([1]; 37 °C): 0 µM; Proxy for plastic degradation [2]: 0 µM |
| B3 | 4 µM | 0 µM |  |
| B4 | 6 µM |  |  |
| B5 |  |  | Proxy for plastic degradation ([2]; part of the chain shown): 370 µM |
